Assay results as given in article PMC2745981.

Molecular target: GFP-tagged GluR1 (ΔL2–3) (UniProt P19490)
Assay: co-IP

Chain of UniProt P19490 (P19490 19-907, stated change not applied): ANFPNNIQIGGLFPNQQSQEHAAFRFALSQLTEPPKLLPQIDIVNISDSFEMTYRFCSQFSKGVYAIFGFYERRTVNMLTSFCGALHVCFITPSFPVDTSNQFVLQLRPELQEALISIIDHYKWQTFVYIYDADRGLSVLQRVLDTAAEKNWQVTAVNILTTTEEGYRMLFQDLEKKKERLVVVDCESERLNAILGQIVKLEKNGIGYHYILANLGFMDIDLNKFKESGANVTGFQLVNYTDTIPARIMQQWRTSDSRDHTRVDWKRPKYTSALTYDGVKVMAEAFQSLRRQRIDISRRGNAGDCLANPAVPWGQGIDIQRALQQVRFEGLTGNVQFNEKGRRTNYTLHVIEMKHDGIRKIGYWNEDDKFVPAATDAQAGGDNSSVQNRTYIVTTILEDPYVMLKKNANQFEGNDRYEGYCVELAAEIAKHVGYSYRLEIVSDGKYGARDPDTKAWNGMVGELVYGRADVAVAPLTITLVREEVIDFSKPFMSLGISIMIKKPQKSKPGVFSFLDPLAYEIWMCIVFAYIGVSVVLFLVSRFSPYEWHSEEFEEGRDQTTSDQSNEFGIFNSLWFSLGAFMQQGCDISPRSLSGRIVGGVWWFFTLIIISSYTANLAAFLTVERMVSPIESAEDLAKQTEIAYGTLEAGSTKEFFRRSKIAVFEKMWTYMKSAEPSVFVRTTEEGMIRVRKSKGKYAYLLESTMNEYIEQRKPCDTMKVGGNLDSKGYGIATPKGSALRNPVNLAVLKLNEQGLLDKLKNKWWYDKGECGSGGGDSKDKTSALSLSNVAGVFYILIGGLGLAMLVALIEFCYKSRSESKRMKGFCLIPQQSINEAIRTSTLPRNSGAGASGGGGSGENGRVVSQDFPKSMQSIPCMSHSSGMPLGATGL

In the case of “HA-tagged p62 (from UniProt Q13501 1-440) (natural protein)”, the interaction, percent of control (wild-type GluR1) is reported as 78 % of control.
